From article PMC5389936 (The Journal of allergy and clinical immunology, 2016)

Biological target: TSLP (M29-130), longer subunit of the PCSK-generated heterodimeric TSLP (human, UniProt Q969D9 29-130)
Assay: MALDI-TOF MS with and without DTT

KVTTNKCLEQVSQLQGLWRRFNRPLLKQQ (peptide, UniProt Q969D9 131-159, looked up) [TSLP (131-159), shorter subunit of the truncated thymic stromal lymphopoietin]: binds.
